Experimental findings from FireProtDB (doi:10.1021/bi050342n) are described below.

B1: Azurin, P00282 (parent)
chain: MLRKLAAVSLLSLLSAPLLAAECSVDIQGNDQMQFNTNAITVDKSCKQFTVNLSHPGNLPKNVMGHNWVLSTAADMQGVVTDGMASGLDKDYLKPDDSRVIAHTKLIGSGEKDSVTFDVSKLKEGEQYMFFCTFPGHSALMKGTLTLK

In this data set the parent is B1. Conditions: Pseudomonas aeruginosa (strain ATCC 15692 / DSM 22644 / CIP 104116 / JCM 14847 / LMG 12228 / 1C / PRS 101 / PAO1); pH 7; 25 °C; GdnHCl; Fluorescence, CD; Tris-HCl 100 mM; reversible: Yes; structure 5AZU; whole UniProt chain shown.

On to MLRKLAAVSLLSLLSAPLLAAECSVDIQGNDQMQFNTNAITVDKSCKQFTVNLSHPGNLPKNVMGHNWVLSTAADMQGVVTDGMASGLDKDYLKPDDSRVIAHTKLIGSGEKDSVTFDVSKLKEGEQAMFFCTFPGHSALMKGTLTLK, for which the “ddG of mutation (higher = less stable)” value was 3.59 kcal/mol, the denaturant m value was 4.42 kcal/mol/M and the unfolding free energy is 9.32 kcal/mol.
Consider MLRKLAAVSLLSLLSAPLLAAECSVDIQGNDQMQFNTNAITVDKSCKQFTVNLSHPGNLPKNVMGHNWVLSTAADMQGVVTDGMASGLDKDYLKPDDSRVIGHTKLIGSGEKDSVTFDVSKLKEGEQYMFFCTFPGHSALMKGTLTLK, for which the “ddG of mutation (higher = less stable)” value turned out to be 1.67 kcal/mol, the denaturant m value was 4.3 kcal/mol/M and the unfolding free energy is 11.2 kcal/mol.
For MLRKLAAVSLLSLLSAPLLAAECSVDIQGNDQMQFNTNAITVDKSCKQFTVNLSHPGNLPKNVMGHNWVLSTAADMQGVVTDGMASGLDKDYLKPDDSRVIAHTKLIGSGEKDSVTFDVSKLKEGEQYMFFCTFPGHSALMKGTATLK the same measures were 1.67 kcal/mol, 4.54 kcal/mol/M and 11.2 kcal/mol.
For MLRKLAAVSLLSLLSAPLLAAECSVDIQGNDQMQFNTNAATVDKSCKQFTVNLSHPGNLPKNVMGHNWVLSTAADMQGVVTDGMASGLDKDYLKPDDSRVIAHTKLIGSGEKDSVTFDVSKLKEGEQYMFFCTFPGHSALMKGTLTLK the same measures were 2.39 kcal/mol, 4.54 kcal/mol/M and 10.5 kcal/mol.
For MLRKLAAVSLLSLLSAPLLAAECSVDIQGNDQMQFNTNAITVDKSCKQFTVNLSHPGNLPKNVMGHNAVLSTAADMQGVVTDGMASGLDKDYLKPDDSRVIAHTKLIGSGEKDSVTFDVSKLKEGEQYMFFCTFPGHSALMKGTLTLK, in that order: 3.35 kcal/mol, 4.78 kcal/mol/M and 9.56 kcal/mol.
For the variant MLRKLAAVSLLSLLSAPLLAAECSVDIQGNDQMQFNTNAITVDKSCKQFTVNLSHPGNLPKNVMGHNWVLSTAADMQGVVTDGMASGLDKDYLKPDDSRVIAHTKLIGSGEKDSATFDVSKLKEGEQYMFFCTFPGHSALMKGTLTLK, the “ddG of mutation (higher = less stable)” value was determined as 0.96 kcal/mol, the denaturant m value came out at 4.3 kcal/mol/M and the unfolding free energy is 11.9 kcal/mol.
For MLRKLAAVSLLSLLSAPLLAAECSVDIQGNDQMQFNTNAITVDKSCKQFTANLSHPGNLPKNVMGHNWVLSTAADMQGVVTDGMASGLDKDYLKPDDSRVIAHTKLIGSGEKDSVTFDVSKLKEGEQYMFFCTFPGHSALMKGTLTLK the same measures were 1.67 kcal/mol, 4.54 kcal/mol/M and 11.2 kcal/mol.
In the case of MLRKLAAVSLLSLLSAPLLAAECSVDIQGNDQMQFNTNAITVDKSCKQFTVNLSHPGNLPKNVMGHNWVLSTAADMQGVVTDGMASGLDKDYLKPDDSRVIAHTKLIGSGEKDSVTFDVSKLKEGEQYMFFCTFPGHSALAKGTLTLK, the “ddG of mutation (higher = less stable)” value stood at 2.87 kcal/mol, the denaturant m value was determined as 4.18 kcal/mol/M and the unfolding free energy is 10 kcal/mol.
For MLRKLAAVSLLSLLSAPLLAAECSADIQGNDQMQFNTNAITVDKSCKQFTVNLSHPGNLPKNVMGHNWVLSTAADMQGVVTDGMASGLDKDYLKPDDSRVIAHTKLIGSGEKDSVTFDVSKLKEGEQYMFFCTFPGHSALMKGTLTLK the same measures were 0.96 kcal/mol, 4.06 kcal/mol/M and 11.9 kcal/mol.
For MLRKLAAVSLLSLLSAPLLAAECSVDAQGNDQMQFNTNAITVDKSCKQFTVNLSHPGNLPKNVMGHNWVLSTAADMQGVVTDGMASGLDKDYLKPDDSRVIAHTKLIGSGEKDSVTFDVSKLKEGEQYMFFCTFPGHSALMKGTLTLK, in that order: 3.35 kcal/mol, 4.3 kcal/mol/M and 9.56 kcal/mol.
In the case of MLRKLAAVSLLSLLSAPLLAAECSVDIQGNDQMQFNTNAITADKSCKQFTVNLSHPGNLPKNVMGHNWVLSTAADMQGVVTDGMASGLDKDYLKPDDSRVIAHTKLIGSGEKDSVTFDVSKLKEGEQYMFFCTFPGHSALMKGTLTLK, the “ddG of mutation (higher = less stable)” value turned out to be 1.67 kcal/mol, the denaturant m value was determined as 4.54 kcal/mol/M and the unfolding free energy worked out at 11.2 kcal/mol.
Turning to MLRKLAAVSLLSLLSAPLLAAECSVDIQGNDQMQFNTNAITVDKSCKQFTVNLSHPGNLPKNVMGHNWVLSTAADMQGVGTDGMASGLDKDYLKPDDSRVIAHTKLIGSGEKDSVTFDVSKLKEGEQYMFFCTFPGHSALMKGTLTLK, the “ddG of mutation (higher = less stable)” value was found to be 3.11 kcal/mol, the denaturant m value came out at 4.18 kcal/mol/M and the unfolding free energy stood at 9.8 kcal/mol.
As for MLRKLAAVSLLSLLSAPLLAAECSVDIQGNDQMQFNTNAITVDKSCKQFTVNLSHPGNLPKNVMGHNWVLSTAADMQGVVTDGMASGLDKDYLKPDDSRVAAHTKLIGSGEKDSVTFDVSKLKEGEQYMFFCTFPGHSALMKGTLTLK, the “ddG of mutation (higher = less stable)” value worked out at 1.43 kcal/mol, the denaturant m value amounted to 4.78 kcal/mol/M and the unfolding free energy stood at 11.5 kcal/mol.
As to MLRKLAAVSLLSLLSAPLLAAECSVDIQGNDQMQFNTNAITVDKSCKQFTVNLSHPGNLPKNVMGHNWVASTAADMQGVVTDGMASGLDKDYLKPDDSRVIAHTKLIGSGEKDSVTFDVSKLKEGEQYMFFCTFPGHSALMKGTLTLK, the “ddG of mutation (higher = less stable)” value came to 1.79 kcal/mol, the denaturant m value was 4.42 kcal/mol/M and the unfolding free energy amounted to 11.1 kcal/mol.
For MLRKLAAVSLLSLLSAPLLAAECSVDIQGNDQMQFNTNAITVDKSCKQFTVNASHPGNLPKNVMGHNWVLSTAADMQGVVTDGMASGLDKDYLKPDDSRVIAHTKLIGSGEKDSVTFDVSKLKEGEQYMFFCTFPGHSALMKGTLTLK, in that order: 1.67 kcal/mol, 4.78 kcal/mol/M and 11.2 kcal/mol.
